Tests used:
[1] = target: aerobactin synthetase IucA from hypervirulent Klebsiella pneumoniae hvKP1 (Klebsiella pneumoniae hvKP1 (hypervirulent pathotype)); experiment: native gel or EMSA
[2] = target: aerobactin synthetase IucA from hypervirulent Klebsiella pneumoniae hvKP1 (Klebsiella pneumoniae hvKP1 (hypervirulent pathotype)); experiment: SEC
[3] = target: aerobactin synthetase IucA from hypervirulent Klebsiella pneumoniae hvKP1 (Klebsiella pneumoniae hvKP1 (hypervirulent pathotype)); experiment: SAXS

Measured: stoichiometry N

aerobactin synthetase IucA from hypervirulent Klebsiella pneumoniae hvKP1 (from UniProt A0ACD7U9R1 1-596) (enzyme)
4: all assays above

Source: article PMC4928626
